# Laboratory results: IntAct's records for PubMed 22555612
# Biological target: hdac2_mouse Hdac2 (UniProt P70288)
# Sequence (P70288 whole entry): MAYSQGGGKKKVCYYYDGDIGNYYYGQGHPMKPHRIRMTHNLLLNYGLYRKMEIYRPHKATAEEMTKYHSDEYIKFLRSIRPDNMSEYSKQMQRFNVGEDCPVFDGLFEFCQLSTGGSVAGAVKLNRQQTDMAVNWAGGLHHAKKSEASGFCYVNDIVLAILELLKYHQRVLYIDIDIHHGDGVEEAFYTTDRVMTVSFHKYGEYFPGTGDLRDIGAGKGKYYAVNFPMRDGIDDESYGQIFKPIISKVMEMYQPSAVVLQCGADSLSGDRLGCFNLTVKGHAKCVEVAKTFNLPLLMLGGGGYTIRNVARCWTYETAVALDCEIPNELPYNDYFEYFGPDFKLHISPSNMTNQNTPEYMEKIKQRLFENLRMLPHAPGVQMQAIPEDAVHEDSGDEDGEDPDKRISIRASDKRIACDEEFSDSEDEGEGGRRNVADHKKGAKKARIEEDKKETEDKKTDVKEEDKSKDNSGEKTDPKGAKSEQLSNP
# PR domain zinc finger protein 1 (Homo sapiens), O75626-2 K778R, sequence (O75626 37-825, stated change not applied): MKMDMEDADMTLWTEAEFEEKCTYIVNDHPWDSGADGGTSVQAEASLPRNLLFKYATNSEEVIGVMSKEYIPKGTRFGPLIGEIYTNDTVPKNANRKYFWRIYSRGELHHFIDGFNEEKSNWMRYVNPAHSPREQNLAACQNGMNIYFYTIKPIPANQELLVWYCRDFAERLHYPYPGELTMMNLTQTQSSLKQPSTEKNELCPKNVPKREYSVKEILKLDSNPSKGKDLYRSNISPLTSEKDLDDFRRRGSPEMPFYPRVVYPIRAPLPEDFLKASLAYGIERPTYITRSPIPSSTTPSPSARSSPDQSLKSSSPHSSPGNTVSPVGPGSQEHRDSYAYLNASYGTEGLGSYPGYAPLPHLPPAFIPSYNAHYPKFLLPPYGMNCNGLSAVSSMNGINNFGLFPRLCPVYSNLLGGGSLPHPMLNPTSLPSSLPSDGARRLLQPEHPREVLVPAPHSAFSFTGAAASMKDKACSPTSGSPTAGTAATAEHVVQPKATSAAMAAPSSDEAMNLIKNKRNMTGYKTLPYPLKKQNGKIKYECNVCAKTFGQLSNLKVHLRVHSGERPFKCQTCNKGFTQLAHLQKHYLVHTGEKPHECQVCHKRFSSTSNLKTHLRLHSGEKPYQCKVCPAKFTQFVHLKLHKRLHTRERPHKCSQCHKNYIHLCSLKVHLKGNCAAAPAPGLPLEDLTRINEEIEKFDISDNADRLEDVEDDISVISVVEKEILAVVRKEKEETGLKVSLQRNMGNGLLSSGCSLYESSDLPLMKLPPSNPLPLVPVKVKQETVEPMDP
substance,measurement,value
"PR domain zinc finger protein 1 (Homo sapiens), O75626-2 K778R",effect of a mutation on the interaction,decreasing interaction
